Bridge positions count the residues as written; N and C are the ends. Ends that are not written are not given here. I, II: the chains in the order shown.
B1: Synthetic human H3 relaxin [hRlx-3 A(1-24) amide-B(1-27) amide] (ligand)
chain 1: DVLAGLSSSCCKWGCSKSEISSLC-NH2
chain 2: RAAPYGVRLCGREFIRAVIFTCGGSRW-NH2
modifications: disulfide I:10-I:15, I:11-II:10, I:24-II:22
notes: Made by solid phase synthesis; also called human 3 relaxin; synthetic H3 relaxin C-terminal amide derivative
B2: Synthetic human H1 relaxin (ligand)
chain 1: RPYVALFEKCCLIGCTKRSLAKYC
chain 2: KWKDDVIKLCGRELVRAQIAICGMSTWS
notes: mature; Synthesized previously (Wade et al 1996); also called human 1 relaxin
B3: Recombinant human H2 relaxin (ligand)
chain 1: QLYSALANKCCHVGCTKRSLARFC
chain 2: DSWMEEVIKLCGRELVRAQIAICGMSTWS
modifications: not fully specified (bridges); ends and bridges not checked
notes: mature; Gift from Connetics Corporation; also called human 2 relaxin

These binders were tested against T1, Human relaxin receptor on THP-1 cells (human, UniProt Q9HBX9 1-757) (assay: cell-based or functional assay).
T1 sequence (looked up): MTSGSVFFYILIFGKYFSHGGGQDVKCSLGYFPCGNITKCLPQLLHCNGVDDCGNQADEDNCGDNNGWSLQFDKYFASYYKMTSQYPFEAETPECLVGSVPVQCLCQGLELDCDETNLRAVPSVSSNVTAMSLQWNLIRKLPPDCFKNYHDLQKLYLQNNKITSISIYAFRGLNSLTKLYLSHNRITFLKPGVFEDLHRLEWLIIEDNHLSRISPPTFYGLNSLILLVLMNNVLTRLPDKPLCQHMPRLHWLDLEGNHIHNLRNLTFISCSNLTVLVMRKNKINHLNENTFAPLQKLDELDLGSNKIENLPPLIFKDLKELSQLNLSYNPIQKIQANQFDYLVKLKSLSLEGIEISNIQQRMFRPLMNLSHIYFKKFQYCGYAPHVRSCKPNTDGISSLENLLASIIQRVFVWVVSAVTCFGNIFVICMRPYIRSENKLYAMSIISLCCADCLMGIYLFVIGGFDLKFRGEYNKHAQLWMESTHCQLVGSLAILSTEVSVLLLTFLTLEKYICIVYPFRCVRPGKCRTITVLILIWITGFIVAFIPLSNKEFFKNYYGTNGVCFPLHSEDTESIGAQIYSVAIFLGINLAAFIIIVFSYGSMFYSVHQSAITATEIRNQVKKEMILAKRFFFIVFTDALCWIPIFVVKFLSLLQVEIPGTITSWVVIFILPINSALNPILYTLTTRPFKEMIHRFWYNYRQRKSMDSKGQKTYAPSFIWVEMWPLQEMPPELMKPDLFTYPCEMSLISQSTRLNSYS

Binder	cAMP production in THP-1 cells, EC50 [pM]	cAMP production in THP-1 cells, pEC50
B1	2110	8.68
B2	794	9.1
B3	214	9.67

Each binder was assayed against T1, Human relaxin receptor on THP-1 cells (assay: competition with 33P-labeled H2 (B33) relaxin (100 pM) for binding to THP-1 cells).
Experimental: THP-1 Cell Binding Assay—THP-1 cells were spun down and resuspended in binding buffer (20 mM HEPES, 50 mM NaCl, 1.5 mM CaCl₂, 1% BSA, 0.1 mg/ml lysine, 0.01% […], pH 7.5) (Parsell et al (1996) J. Biol. Chem. 271, 27936-27941) to give 2×10⁶ cells/well in a 96-well plate. The cells were incubated in binding buffer with ³³P-labeled H2 (B33) relaxin (100 pM: labeled as previously described (Tan et al (1999) Br. J. Pharmacol. 127, 91-98) at 25° C. for 90 min in the absence or presence of increasing concentrations of unlabeled H1, H2 and H3 relaxin (100 pM to 30 nM). Non-specific binding was defined with H2 relaxin (1 μM. Cells were harvested using a Packard 96-well plate cell harvester and Whatman GF/C glass fibre filters treated with 0.5% polyethylenimine. The filters were washed three times with modified binding buffer (20 mM HEPES, 50 mM NaCl, 1.5 mM CaCl₂), dried in a 37° C. oven, and the radioactivity counted by liquid scintillation spectrometry (TopCount™, Canberra Packard, Australia).

Binder	pKi
B1	7.5
B2	8.9
B3	8.74

Source: patent US20050026822A1 (HOWARD FLOREY INSTITUTE OF EXPERIMENTAL PHYSIOLOGY AND …, published 2005)
